1 molecule from patent publication US8715697B2, “Genes associated with Leishmania parasite virulence” (priority 2001, dated 2014) can be followed below.

Experiment [1] deals with mononuclear cells. Nature of the experiment: In vitro proliferation of mononuclear cells from individuals of a ZCL region, tritiated thymidine incorporation. The experiment is classed as cell-based, human. The following applies: 5 μg/ml LmPDI, 5 days of culture, immune individuals (positive SLA test); FIG. 8. On the procedure:
The lymphomonocytary cells were recovered, washed by 3 successive centrifuge runs with RPMI-PS/Glu medium (30 ml then twice 10 ml) then counted and incubated at a concentration of 10^6 cells/ml of medium in the presence or absence of a concentration of 5 μg/ml of LmPDI. After 5 days of culture, lymphocyte stimulation was estimated by incorporating tritiated thymidine. The result is expressed in CPM.
L. major LmPDI, because of its high expression during the infectious stage of the parasite, could be a target for a cellular immune response. In order to verify the pertinence of this hypothesis, the capacity of LmPDI to induce a cellular immune response was evaluated by means of experiments on the proliferation of mononuclear cells obtained from individuals having active lesions or ZCL antecedents.
This study was carried out in 37 individuals living at El Guettar (southern Tunisia) for whom the results of the cellular proliferation test against total antigens from the parasite (SLA, a test indicating prior contact with the parasite) was available. These individuals were divided up as follows:
Mononuclear cells comprising lymphocytes and monocytes were separated from peripheral blood by centrifuging on a Ficoll/Hypaque gradient (Pharmacia, Uppsala, Sweden).
(In general: Uptake of a labelled nucleoside into DNA is a usual measure of proliferation.)

Experiment [2] relates to mononuclear cells (PBMC). Kind of experiment: Cytokines (IFN-β, IL-4) in PBMC culture supernatants, ELISA. It counts as cell-based, human. The following applies: 5 μg/ml LmPDI, 48 hours, small sample of individuals. The procedure: Cytokines (IFN-β, IL-4) in PBMC culture supernatants were induced by incubating mononuclear cells for 48 hours with the same concentration of LmPDI and assaying by means of an ELISA test using human anti-IL-4 and anti-IFN-β monoclonal antibodies (Pharmingen, San Diego, Calif.).
(An ELISA detects its analyte on a solid surface through an enzyme-linked reagent.)

For experiment [3], the system named is scrambled RNase A. Kind of experiment: Reactivation of scrambled RNase A in the presence of recombinant LmPDI protein (PDI activity). It counts as biochemical. The following applies: 1.4 μM recombinant LmPDI, 30 minutes at 25° C., compared with bovine PDI; FIG. 4. The procedure: Scrambled RNase A (8 μM) was incubated in a buffer containing 4.5 mM (cCMP), 1 mM glutathione GSH, 0.2 mM glutathione disulfide GSSH, 2 mM EDTA and 100 mM Tris-HCl pH 8 in the presence of bovine serum albumin (BSA) (1.4 μM) as a negative control, bovine protein disulfide-isomerase (1.4 μM) as the positive control, or recombinant LmPDI (1.4 μM) for 30 minutes at 25° C. RNase A reactivation was determined by measuring the RNase A activity at 296 nm every 5 minutes for 30 minutes (Lyles and Gilbert, 1991).
20 mg of purified ribonuclease (RNase A) was scrambled at ambient temperature for 18 hours in a buffer containing 0.15 M of DTT, 6 M of guanidine-HCl and 0.1 M of Tris-HCl at a pH of 8.6 before being purified on a Sephadex G-25 column equilibrated in 0.01 M HCl. The concentration of scrambled RNase A fractions was determined using an extinction coefficient of 9200 M^−1 cm^−1 at 275 nm. Thu fractions were stored at −80° C. for two weeks.
Scrambled RNase A (8 μM) was incubated in a buffer containing 4.5 mM cCMP, 1 mM glutathione GSH, 0.2 mM glutathione disulfide GSSH, 2 mM EDTA and 100 mM of Tris-HCl pH 8 in the presence of bovine serum albumin (BSA) (1.4 μM) as a negative control, bovine protein disulfide-isomerase (1.4 μM) as a positive control, or recombinant LmPDI (1.4 μM) for 30 minutes at 25° C. […]

B1: LmPDI: recombinant protein disulfide isomerase of Leishmania major, SEQ ID No: 3, produced in E. coli; vaccine candidate (protein)
chain: MAEVQVATKDNFDKVVIGDLTLVKFYAPWCGHCKTLAPEFVKAADMLAGIATLAEVDCTKEESLAEKYEIKGFPTLYIFRNGEKVKIYDGPRTAAGIASYMKAHVGPSMKAISTAEELEELKKETFPVCVVKTASTDSEMASMITKVADSLRSQMNFVLVTDAAISPNDAMESVTVYRKNAEREAYTGATPMTAESVKSFLTSAVLDYFGELGQESFQKYMEANKDKPLGWVFIDKNTDSALKGSLVAVAEKYRSQVLLTYIDGDQYRPVSRQLGIPEDAKFPAFVVDFERRHHVMGTDTPVTSESVAAFVEKYVKGETKQTVMSDAIPAKETVNGLTTVVGQTFAKYTDGTQNVMLLFYAPWCGHCKKLHPVYDKVAKSFESENVIIAKMDATTNDFDREKFEVSGFPTIYFIPAGKPPIVYEGGRTADEIQVFVKSHLTASAAPSGGPSGNSEEEDLLEHHHHHH
modifications: His6 tag
notes: vaccine candidate
As for B1, the “proliferation of mononuclear cells” value in experiment [1] was “significant proliferation”. For the same molecule, in experiment [2], the “IFN-β in the supernatant from stimulated cells” value is listed as “significant amounts” and the “IL-4 in the supernatant from stimulated cells” value is reported as “absence”. Besides, the “restoration of RNase A activity” value in experiment [3] is listed as “capable of restoring RNase A activity”.
